Patent publication US7819908B2, “Compositions and methods for reducing lung volume” (Aeris Therapeutics, Inc., priority 2002, dated 2010)

Test system: sheep
Experiment: Papain-induced emphysema in sheep: lung physiology, plethysmography, CT
Type: in vivo
Excerpt: We examined the safety and utility of trypsin preconditioning for BVR in a group of seven sheep with emphysema generated by prior exposure to papain inhalation. This large animal model of emphysema is one with which we have extensive prior experience.

[1] = papain-induced emphysema, Campbell diagram

B1: papain: enzyme given by inhalation or instilled bronchoscopically to sheep to generate the emphysema model (protein, UniProt P00784 134-345, looked up)
Papain: IPEYVDWRQKGAVTPVKNQGSCGSCWAFSAVVTIEGIIKIRTGNLNEYSEQELLDCDRRSYGCNGGYPWSALQLVAQYGIHYRNTYPYEGVQRYCRSREKGPYAAKTDGVRQVQPYNEGALLYSIANQPVSVVLEAAGKDFQLYRGGIFVGPCGNKVDHAVAAVGYGPNYILIKNSWGTGWGENGYIRIKRGTGNSYGVCGLYTSSFYPVKN
- tissue density in Houndsfield units measured by CT scanning (2 weeks following serial papain exposure): significant decrease
- recoil pressures at full inflation (after papain-induced emphysema, baseline 16.4 cm H2O): 8.9 cm H2O
- change in TLC and RV [1]: significant increase
- impact on active or passive chest wall mechanics [1]: no significant impact
- lung volume measured by plethysmography (papain-treated vs untreated, 2 weeks after serial papain exposure): significant increase
- increase in airway resistance (post-papain vs baseline): 75±16%
- residual volume (RV) increased (post-papain vs baseline): 66±21%
- total lung capacity (TLC) increased (post-papain vs baseline): 10±3%
- vital capacity (VC) increased (post-papain vs baseline): 11±4%
- increase in total lung resistance (sum of airway and tissue components) (post-papain vs baseline, normal respiratory frequencies): 40±9%
